Assay in all cases: pull-down binding Z-score (relative to library population); higher = stronger binding
Conditions in all cases: RNA library: Library-2

Data set [1] deals with TO-3-N3 (biotin conjugate). Put shortly:
(§1)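 Cy5- or Cy3-end-labelled RNA library (1 μg) was heat-folded in phosphate/NaCl/KCl buffer and incubated 60 min at 25 °C with streptavidin beads carrying 100 pmol biotin-conjugated small molecule. After three washes, bound RNA was eluted in hot SDS and hybridised 20 h at 55.5 °C to a DNA barcode microarray. Binding was scored by subtracting a beads-only control, averaging barcoded replicate probes after dropping highest and lowest, and converting to a Z-score against library mean and standard deviation.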

Data set [2] has as its system TO-3-N3-2 (biotin conjugate). Put shortly: as §1
The next data set concerns TO-N3 (biotin conjugate). Put shortly: as §1
Data set [3] deals with TO-N3-2 (biotin conjugate). A digest of the protocol:
as §1

Data on 34 sequences can be found in the supplement of paper PMC11865577.

Consider “CCAUGGCAGAUUCCAACGGUACUAUUACCGUUGAAGAGCUUAAAAAGCUCCUUGAACAAUGGAACCUAGUAAUAGGUUUCCUAUUCCUUACAUGG [DMSMaPseq_invitro_SARS-CoV-2_Multi_81_ComplexLevel_1]”, for which the “pull-down binding Z-score” value was -0.195 in data set [1], -0.516 in data set [2], -0.621 in the data set with TO-N3 (biotin conjugate) and -0.419 in data set [3].

GCGCUGCCAGAAACUGGCAAAGCGC [bulge-AA]: the “pull-down binding Z-score” value is -0.184 in data set [1], -0.00126 in data set [2], -0.403 with TO-N3 (biotin conjugate) and -0.0432 in data set [3].

As to GUUGAAGAAGUUACAAC, the “pull-down binding Z-score” value was 0.355 in data set [1], 0.148 in data set [2], 0.365 with TO-N3 (biotin conjugate) and -0.168 in data set [3].

Turning to “GCUGAAAUUGUUGACACUGUGAGUGCUUUGGUUUAUGAUAAUAAGCUUAAAGCACAUAAAGACAAAUCAGC”, the “pull-down binding Z-score” value in data set [1] was -0.842; in data set [2], -0.129; in the data set with TO-N3 (biotin conjugate), -0.634; in data set [3] it was -0.342.

For “GUCGCUACAGGAUUGGCAACUAUAAAUUAAACACAGACCAUUCCAGUAGCAGUGAC [SHAPE_invitro_SARS-CoV-2_Motif_494]”, the “pull-down binding Z-score” value in data set [1] is 0.00722; in data set [2] it was 0.215; in the data set with TO-N3 (biotin conjugate), 0.0101; in data set [3], -0.283.

Consider “UCCUCCCAGUGGCUGGUGGA [IAV_invivo_PB2_1_Motif_9+IAV_invivo_PB2_1_Motif_9]”, for which the “pull-down binding Z-score” value in data set [1] was -0.0747; in data set [2] it was -0.322; with TO-N3 (biotin conjugate) it was -0.228; in data set [3] it was -0.225.

Regarding CUUUGAUAAAGCUGGUCAAAAGACUUAUGAAAG, the “pull-down binding Z-score” value in data set [1] is -0.814; in data set [2], -0.4; with TO-N3 (biotin conjugate), -0.947; in data set [3], -0.816.

As for “AAUUAUAAAUUACCAGAUGAUUUUACAGGCUGCGUUAUAGCUUGGAAUUCUAACAAUCUUGAUUCUAAGGUUGGUGGUAAUUAUAAUU”, the “pull-down binding Z-score” value was -0.932 in data set [1], -0.123 in data set [2], -0.993 with TO-N3 (biotin conjugate) and -0.712 in data set [3].

On to “AACGAACUUUAAAAUCUGUGUGGCUGUCACUCGGCUGCAUGCUUAGUGCACUCACGCAGUAUAAUUAAUAACUAAUUACUGUCGUU”, for which the “pull-down binding Z-score” value in data set [1] is -1.01; in data set [2] it was -0.0969; with TO-N3 (biotin conjugate), -0.781; in data set [3], -0.131.

AACCCUCACCUUAUGGGUU: the “pull-down binding Z-score” value is -0.558 in data set [1], -0.745 in data set [2], -0.946 in the data set on TO-N3 (biotin conjugate) and -1.48 in data set [3].

On to “GCUGCACAAAAAGC [IAV_invivo_NP_5_Motif_13+IAV_invivo_NP_5_Motif_13]”, for which the “pull-down binding Z-score” value in data set [1] is -0.79; in data set [2], -0.544; in the data set on TO-N3 (biotin conjugate) it was -1.08; in data set [3] it was -0.23.

In the case of AACUUUAGCUUGUUUUGUGCUUGCUGCUGUU, the “pull-down binding Z-score” value was 0.701 in data set [1], -0.0892 in data set [2], 0.34 in the data set with TO-N3 (biotin conjugate) and -0.708 in data set [3].

Take “GUUCUUGAGUGUAAUGUGAAAACUACCGAAGUUGUAGGAGACAUUAUACUUAAACCAGC”: the “pull-down binding Z-score” value in data set [1] was -0.133; in data set [2] it was 0.0674; in the data set with TO-N3 (biotin conjugate), 0.111; in data set [3], 0.162.

Consider GCGCUGCCAGAAACUGGCCCCAGCGC [bulge-CCC], for which the “pull-down binding Z-score” value in data set [1] is -0.229; in data set [2], -0.182; with TO-N3 (biotin conjugate), -0.283; in data set [3], 0.6.

Turning to UGGGGCGCGAUCAAAACAACGUCGGCCCCA, the “pull-down binding Z-score” value was 0.2 in data set [1], 0.157 in data set [2], 0.0437 in the data set on TO-N3 (biotin conjugate) and -0.439 in data set [3].

Take “UAAAGCCACGUAUAAACCAAAUACCUGGUGUAUACGUUGUCUUUG”: the “pull-down binding Z-score” value in data set [1] was -0.523; in data set [2] it was -0.279; with TO-N3 (biotin conjugate), -0.75; in data set [3], -0.691.

Take “CCGAAAUUAUGUCUUUACUGGUUAUCGUGUAACUAAAAACAGUAAAGUACAAAUAGG”: the “pull-down binding Z-score” value in data set [1] is -0.303; in data set [2], -0.0158; in the data set on TO-N3 (biotin conjugate) it was -0.399; in data set [3], -0.428.

As for AAGACUCAUCUCUAUGAUGGGUUUU, the “pull-down binding Z-score” value in data set [1] is -0.938; in data set [2], -0.575; in the data set with TO-N3 (biotin conjugate) it was -1.34; in data set [3], -1.46.

For the sequence CAGGUACAGUAGAUACUUACCUG [U1snRNP5ss-19], the “pull-down binding Z-score” value is -0.605 in data set [1], -0.722 in data set [2], -0.984 in the data set with TO-N3 (biotin conjugate) and -1.09 in data set [3].

Take “AAUUGAUUCUUACUUUGUAGUUAAGAGACACACUUUCUCUAACUACCAACAUGAAGAAACAAUU”: the “pull-down binding Z-score” value in data set [1] is 0.502; in data set [2], 0.0491; with TO-N3 (biotin conjugate), 0.281; in data set [3] it was -0.614.

Turning to ACCAUUCUUCGUAAGGGUGGU, the “pull-down binding Z-score” value in data set [1] is -0.172; in data set [2], -0.207; in the data set with TO-N3 (biotin conjugate), -0.223; in data set [3], -0.847.

For CCACGCCAGGUAGUGG, the “pull-down binding Z-score” value was 1.16 in data set [1], 0.0319 in data set [2], 0.912 with TO-N3 (biotin conjugate) and -0.539 in data set [3].

Regarding UACCUUUUGCUAUGGGUA, the “pull-down binding Z-score” value was -0.317 in data set [1], -0.454 in data set [2], -0.582 in the data set on TO-N3 (biotin conjugate) and -1.26 in data set [3].

On to “CCAGUAUCUGAAUUACUUACACCACUGGGCAUUGAUUUAGAUGAGUGGAGUAUGGCUACAUACUACUUAUUUGAUGAGUCUGGUGAGUUUAAAUUGG”, for which the “pull-down binding Z-score” value is -0.742 in data set [1], -0.468 in data set [2], -0.752 in the data set with TO-N3 (biotin conjugate) and -0.946 in data set [3].

In the case of “CUGAAAAAUGGGAAUCUGGAGUAAAAGACUGUGUUGUAUUACACAGUUACUUCACUUCAGACUAUUACCAG”, the “pull-down binding Z-score” value in data set [1] was -0.376; in data set [2], -0.182; with TO-N3 (biotin conjugate), -0.329; in data set [3], -0.48.

Consider GCCACUUGCGAAUUUUGUGGC, for which the “pull-down binding Z-score” value in data set [1] was 0.0442; in data set [2], -0.0945; in the data set with TO-N3 (biotin conjugate), -0.312; in data set [3], -0.997.

On to AACACCAGUUUACUCAUUCUUACCUGGUGUU, for which the “pull-down binding Z-score” value was -0.56 in data set [1], -0.421 in data set [2], -0.829 in the data set with TO-N3 (biotin conjugate) and -1.46 in data set [3].

As for “GCCGAAUACCAUAAUGAAUCUGGC [SHAPE_invitro_SARS-CoV-2_Motif_29]”, the “pull-down binding Z-score” value was -0.597 in data set [1], -0.529 in data set [2], -0.479 in the data set on TO-N3 (biotin conjugate) and -0.0249 in data set [3].

For the sequence “CCUCUAAAAGCCCCAAAAGAAAUUAUCUUCUUAGAGGGAGAAACACUUCCCACAGAAGUGUUAACAGAGG”, the “pull-down binding Z-score” value in data set [1] is -0.556; in data set [2] it was -0.139; in the data set with TO-N3 (biotin conjugate) it was -0.162; in data set [3], 0.314.

As for “GGUUUAGCUGCUGUUAAUAGUGUCCCUUGGGAUACUAUAGCUAAUUAUGCUAAGCC”, the “pull-down binding Z-score” value is 0.621 in data set [1], -0.323 in data set [2], 0.141 with TO-N3 (biotin conjugate) and -0.225 in data set [3].

As for “UAGAGAAAACAACAGAGUUGUUAUUUCUAGUGAUGUUCUUGUUAACAACUAAACGAACAAUGUUUGUUUUUCUUGUUUUAUUGCCACUAGUCUCUA [SHAPE_invitro_SARS-CoV-2_Multi_58_ComplexLevel_1]”, the “pull-down binding Z-score” value in data set [1] was -0.989; in data set [2] it was -0.215; in the data set with TO-N3 (biotin conjugate) it was -0.976; in data set [3], -0.78.

Take “AUUACUGCAAAAUGGUAUGAAUGGACGUACCAUAUUGGGUAGU [DMSMaPseq_invitro_SARS-CoV-2_Motif_194]”: the “pull-down binding Z-score” value in data set [1] is 0.151; in data set [2] it was 0.144; with TO-N3 (biotin conjugate) it was 0.0935; in data set [3], -0.151.

On to “GGGUUGGGUUGGGUUGGGUUGGGUUGGGUU [G4_r(GGGUU)6]”, for which the “pull-down binding Z-score” value turned out to be 7.99 in data set [1], 10.1 in data set [2], 6.75 in the data set with TO-N3 (biotin conjugate) and 5.08 in data set [3].

For “CUGUCAUGGAAGCAAGUACUGGCAG [IAV_invivo_PA_3_Motif_16+IAV_invivo_PA_3_Motif_16]”, the “pull-down binding Z-score” value in data set [1] was 0.591; in data set [2], 0.12; with TO-N3 (biotin conjugate), 0.596; in data set [3], 0.323.
